Experimental data taken from the supplement of paper PMC9112550, “Optimization of the antimicrobial peptide Bac7 by deep mutational scanning” (BMC Biology, 2022).

Tested on: Escherichia coli TOP10
Assay: shrunken log2 fold change of peptide-encoding DNA abundance (4.5 h post-induction vs induction); higher = less antimicrobial activity (less host growth inhibition)
Conditions: time post-induction: 4.5 h; library: site-saturation at positions 5, 18, 19, 20
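Also: peptides expressed intracellularly from a pBAD plasmid library in pooled LB shake-flask culture, induced with 0.3% L-arabinose, DNA abundance read by NGS, three biological replicates, DESeq2 with apeglm shrinkage.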

With RRIRSRPPRLPRPRPRPIRGPRP the “shrunken log2 fold change” value was -0.0109.
RRIRSRPPRLPRPRPRPNFIPRP was tested, and the “shrunken log2 fold change” value was -0.391.
In the case of RRIRRRPPRLPRPRPRPWMNPRP, the “shrunken log2 fold change” value is reported as -0.0882.
For RRIRVRPPRLPRPRPRPMKSPRP, the “shrunken log2 fold change” value was 3.02.
For RRIRARPPRLPRPRPRPFVMPRP, the “shrunken log2 fold change” value was -0.181.
For RRIRKRPPRLPRPRPRPSCVPRP, the “shrunken log2 fold change” value was 0.311.
With RRIRNRPPRLPRPRPRPKYFPRP the “shrunken log2 fold change” value was -0.0727.
For RRIRIRPPRLPRPRPRPLFPPRP, the “shrunken log2 fold change” value was -0.42.
With RRIRDRPPRLPRPRPRPGPDPRP the “shrunken log2 fold change” value was 0.217.
With RRIRGRPPRLPRPRPRPNRNPRP the “shrunken log2 fold change” value was 0.00949.
For RRIRGRPPRLPRPRPRPLDAPRP, the “shrunken log2 fold change” value was 0.969.
In the case of RRIRLRPPRLPRPRPRPQIWPRP, the “shrunken log2 fold change” value is reported as -0.166.
RRIRLRPPRLPRPRPRPWFHPRP was tested, and the “shrunken log2 fold change” value was -0.352.
With RRIRRRPPRLPRPRPRPFTLPRP the “shrunken log2 fold change” value was -0.2.
With RRIRKRPPRLPRPRPRPADKPRP the “shrunken log2 fold change” value was 0.122.
For RRIRWRPPRLPRPRPRPYMYPRP, the “shrunken log2 fold change” value was -0.848.
For RRIRERPPRLPRPRPRPVQCPRP, the “shrunken log2 fold change” value was 0.00166.
With RRIRERPPRLPRPRPRPQFAPRP the “shrunken log2 fold change” value was -0.148.
RRIRTRPPRLPRPRPRPTYAPRP was tested, and the “shrunken log2 fold change” value was -0.0854.
For RRIRQRPPRLPRPRPRPQWSPRP, the “shrunken log2 fold change” value was 0.282.
For RRIRHRPPRLPRPRPRPDGWPRP, the “shrunken log2 fold change” value was 0.191.
In the case of RRIRARPPRLPRPRPRPMFIPRP, the “shrunken log2 fold change” value is reported as 0.0587.
In the case of RRIRPRPPRLPRPRPRPSSIPRP, the “shrunken log2 fold change” value is reported as -0.824.
RRIRSRPPRLPRPRPRPEHWPRP was tested, and the “shrunken log2 fold change” value was 0.422.
For RRIRRRPPRLPRPRPRPHDEPRP, the “shrunken log2 fold change” value was 0.18.
RRIRFRPPRLPRPRPRPDGAPRP was tested, and the “shrunken log2 fold change” value was -0.0432.
In the case of RRIRSRPPRLPRPRPRPSSCPRP, the “shrunken log2 fold change” value is reported as -0.271.
With RRIRRRPPRLPRPRPRPCEWPRP the “shrunken log2 fold change” value was -0.0585.
RRIRNRPPRLPRPRPRPVCGPRP was tested, and the “shrunken log2 fold change” value was 0.0972.
For RRIRTRPPRLPRPRPRPAVKPRP, the “shrunken log2 fold change” value was 0.106.
For RRIRSRPPRLPRPRPRPDQWPRP, the “shrunken log2 fold change” value was -0.0262.
RRIRIRPPRLPRPRPRPSLFPRP was tested, and the “shrunken log2 fold change” value was -0.66.
With RRIRGRPPRLPRPRPRPRRGPRP the “shrunken log2 fold change” value was 0.813.
With RRIRMRPPRLPRPRPRPTQRPRP the “shrunken log2 fold change” value was 0.968.
With RRIRHRPPRLPRPRPRPNDYPRP the “shrunken log2 fold change” value was -0.56.
With RRIRKRPPRLPRPRPRPEGDPRP the “shrunken log2 fold change” value was 1.24.
For RRIRQRPPRLPRPRPRPHQHPRP, the “shrunken log2 fold change” value was -0.309.
RRIRMRPPRLPRPRPRPNENPRP was tested, and the “shrunken log2 fold change” value was 0.314.
RRIRQRPPRLPRPRPRPPLPPRP was tested, and the “shrunken log2 fold change” value was 0.424.
RRIRHRPPRLPRPRPRPHSIPRP was tested, and the “shrunken log2 fold change” value was -0.318.
RRIRCRPPRLPRPRPRPLMMPRP was tested, and the “shrunken log2 fold change” value was 0.239.
In the case of RRIRVRPPRLPRPRPRPTWAPRP, the “shrunken log2 fold change” value is reported as 0.194.
For RRIRPRPPRLPRPRPRPSMYPRP, the “shrunken log2 fold change” value was -0.676.
In the case of RRIRWRPPRLPRPRPRPTKQPRP, the “shrunken log2 fold change” value is reported as 0.0132.
In the case of RRIRDRPPRLPRPRPRPNHAPRP, the “shrunken log2 fold change” value is reported as -0.31.
For RRIRPRPPRLPRPRPRPNNKPRP, the “shrunken log2 fold change” value was -0.542.
RRIRMRPPRLPRPRPRPTCNPRP was tested, and the “shrunken log2 fold change” value was -0.0778.
In the case of RRIRFRPPRLPRPRPRPMWAPRP, the “shrunken log2 fold change” value is reported as 0.0936.
With RRIRFRPPRLPRPRPRPAPWPRP the “shrunken log2 fold change” value was 0.592.
RRIRSRPPRLPRPRPRPFAAPRP was tested, and the “shrunken log2 fold change” value was 0.355.
RRIRIRPPRLPRPRPRPQAPPRP was tested, and the “shrunken log2 fold change” value was -0.331.
For RRIRVRPPRLPRPRPRPQTPPRP, the “shrunken log2 fold change” value was 0.546.
With RRIRDRPPRLPRPRPRPQYVPRP the “shrunken log2 fold change” value was -0.229.
In the case of RRIRPRPPRLPRPRPRPYGHPRP, the “shrunken log2 fold change” value is reported as 0.0138.
In the case of RRIRGRPPRLPRPRPRPRPMPRP, the “shrunken log2 fold change” value is reported as 1.51.
With RRIRLRPPRLPRPRPRPKNGPRP the “shrunken log2 fold change” value was -0.203.
RRIRERPPRLPRPRPRPKFVPRP was tested, and the “shrunken log2 fold change” value was -0.287.
RRIRVRPPRLPRPRPRPQQEPRP was tested, and the “shrunken log2 fold change” value was 0.0458.
RRIRDRPPRLPRPRPRPYIPPRP was tested, and the “shrunken log2 fold change” value was -0.456.
In the case of RRIRIRPPRLPRPRPRPKATPRP, the “shrunken log2 fold change” value is reported as -0.141.
In the case of RRIRCRPPRLPRPRPRPRQPPRP, the “shrunken log2 fold change” value is reported as 0.249.
With RRIRMRPPRLPRPRPRPIPYPRP the “shrunken log2 fold change” value was 0.013.
In the case of RRIRHRPPRLPRPRPRPHIMPRP, the “shrunken log2 fold change” value is reported as -0.63.
RRIRPRPPRLPRPRPRPIKHPRP was tested, and the “shrunken log2 fold change” value was -0.31.
For RRIRNRPPRLPRPRPRPCFIPRP, the “shrunken log2 fold change” value was -0.86.
With RRIRCRPPRLPRPRPRPTFQPRP the “shrunken log2 fold change” value was -0.0555.
With RRIRSRPPRLPRPRPRPVFQPRP the “shrunken log2 fold change” value was -0.302.
In the case of RRIRMRPPRLPRPRPRPFGKPRP, the “shrunken log2 fold change” value is reported as 0.129.
For RRIRPRPPRLPRPRPRPVYNPRP, the “shrunken log2 fold change” value was 0.88.
With RRIRRRPPRLPRPRPRPWIGPRP the “shrunken log2 fold change” value was 0.0943.
In the case of RRIRWRPPRLPRPRPRPVKCPRP, the “shrunken log2 fold change” value is reported as -0.015.
In the case of RRIRQRPPRLPRPRPRPVFNPRP, the “shrunken log2 fold change” value is reported as -0.291.
In the case of RRIRERPPRLPRPRPRPSVAPRP, the “shrunken log2 fold change” value is reported as 0.132.
With RRIRFRPPRLPRPRPRPIGWPRP the “shrunken log2 fold change” value was -0.0252.
With RRIRGRPPRLPRPRPRPRVWPRP the “shrunken log2 fold change” value was 0.547.
For RRIRERPPRLPRPRPRPKGYPRP, the “shrunken log2 fold change” value was 0.016.
RRIRARPPRLPRPRPRPGRVPRP was tested, and the “shrunken log2 fold change” value was 0.612.
In the case of RRIRTRPPRLPRPRPRPDFSPRP, the “shrunken log2 fold change” value is reported as -0.0283.
For RRIRRRPPRLPRPRPRPNENPRP, the “shrunken log2 fold change” value was 0.256.
With RRIRCRPPRLPRPRPRPCLAPRP the “shrunken log2 fold change” value was -0.257.
With RRIRHRPPRLPRPRPRPRPKPRP the “shrunken log2 fold change” value was -0.0808.
With RRIRYRPPRLPRPRPRPPRWPRP the “shrunken log2 fold change” value was 0.466.
With RRIRLRPPRLPRPRPRPAYHPRP the “shrunken log2 fold change” value was -0.249.
RRIRYRPPRLPRPRPRPHNDPRP was tested, and the “shrunken log2 fold change” value was -0.692.
With RRIRQRPPRLPRPRPRPALFPRP the “shrunken log2 fold change” value was -0.0103.
With RRIRIRPPRLPRPRPRPYQIPRP the “shrunken log2 fold change” value was -0.273.
RRIRERPPRLPRPRPRPARCPRP was tested, and the “shrunken log2 fold change” value was 0.114.
For RRIRWRPPRLPRPRPRPLPVPRP, the “shrunken log2 fold change” value was -0.0992.
RRIRGRPPRLPRPRPRPFIWPRP was tested, and the “shrunken log2 fold change” value was 0.351.
With RRIRHRPPRLPRPRPRPWPGPRP the “shrunken log2 fold change” value was -0.327.
For RRIRPRPPRLPRPRPRPDCFPRP, the “shrunken log2 fold change” value was 0.112.
In the case of RRIRTRPPRLPRPRPRPILCPRP, the “shrunken log2 fold change” value is reported as -0.0876.
RRIRKRPPRLPRPRPRPMGDPRP was tested, and the “shrunken log2 fold change” value was 0.153.
RRIRPRPPRLPRPRPRPQEVPRP was tested, and the “shrunken log2 fold change” value was 0.0706.
With RRIRCRPPRLPRPRPRPQPPPRP the “shrunken log2 fold change” value was 0.806.
With RRIRDRPPRLPRPRPRPMTMPRP the “shrunken log2 fold change” value was -0.00418.
For RRIRQRPPRLPRPRPRPGSNPRP, the “shrunken log2 fold change” value was 0.127.
With RRIRFRPPRLPRPRPRPHWQPRP the “shrunken log2 fold change” value was -0.119.
With RRIRARPPRLPRPRPRPPYPPRP the “shrunken log2 fold change” value was 0.256.
For RRIRMRPPRLPRPRPRPNWEPRP, the “shrunken log2 fold change” value was 0.0757.
With RRIRMRPPRLPRPRPRPTVHPRP the “shrunken log2 fold change” value was 0.102.
RRIRTRPPRLPRPRPRPPHCPRP was tested, and the “shrunken log2 fold change” value was 0.474.
For RRIRERPPRLPRPRPRPGNMPRP, the “shrunken log2 fold change” value was -0.0808.
In the case of RRIRIRPPRLPRPRPRPKCTPRP, the “shrunken log2 fold change” value is reported as -0.233.
For RRIRGRPPRLPRPRPRPFTEPRP, the “shrunken log2 fold change” value was 0.104.
For RRIRRRPPRLPRPRPRPINAPRP, the “shrunken log2 fold change” value was 0.185.
For RRIRIRPPRLPRPRPRPCAVPRP, the “shrunken log2 fold change” value was -0.431.
In the case of RRIRNRPPRLPRPRPRPDYQPRP, the “shrunken log2 fold change” value is reported as -0.165.
RRIRTRPPRLPRPRPRPLFMPRP was tested, and the “shrunken log2 fold change” value was -0.737.
In the case of RRIRTRPPRLPRPRPRPMKYPRP, the “shrunken log2 fold change” value is reported as -0.0467.
In the case of RRIRNRPPRLPRPRPRPKATPRP, the “shrunken log2 fold change” value is reported as -0.0881.
With RRIRDRPPRLPRPRPRPTANPRP the “shrunken log2 fold change” value was 0.877.
In the case of RRIRPRPPRLPRPRPRPVESPRP, the “shrunken log2 fold change” value is reported as -0.0537.
For RRIRARPPRLPRPRPRPIDHPRP, the “shrunken log2 fold change” value was -0.00706.
In the case of RRIRCRPPRLPRPRPRPIFDPRP, the “shrunken log2 fold change” value is reported as -0.191.
In the case of RRIRVRPPRLPRPRPRPYSDPRP, the “shrunken log2 fold change” value is reported as -0.145.
RRIRFRPPRLPRPRPRPKIKPRP was tested, and the “shrunken log2 fold change” value was -0.431.
RRIRRRPPRLPRPRPRPFCAPRP was tested, and the “shrunken log2 fold change” value was 0.488.
With RRIRLRPPRLPRPRPRPMEFPRP the “shrunken log2 fold change” value was -0.00133.
In the case of RRIRYRPPRLPRPRPRPVCQPRP, the “shrunken log2 fold change” value is reported as -0.181.
With RRIRFRPPRLPRPRPRPDPSPRP the “shrunken log2 fold change” value was -0.323.
In the case of RRIRNRPPRLPRPRPRPSCRPRP, the “shrunken log2 fold change” value is reported as 0.0168.
With RRIRIRPPRLPRPRPRPSDCPRP the “shrunken log2 fold change” value was -0.497.
In the case of RRIRARPPRLPRPRPRPWMNPRP, the “shrunken log2 fold change” value is reported as -0.121.
RRIRHRPPRLPRPRPRPENMPRP was tested, and the “shrunken log2 fold change” value was -0.042.
